From publication PMC4477663 (Nucleic Acids Research, 2015)

Assays:
Experiment in all cases: pull-down
[1] = biological target: recombinant APE1 C65S+C99S (UniProt P27695 1-318, C65S | C99S)
recombinant APE1 C65S = recombinant APE1 C65S (UniProt P27695 1-318, C65S)
recombinant APE1 C99S = recombinant APE1 C99S (UniProt P27695 1-318, C99S)

Measured: binding result

Sequence of recombinant APE1 C65S (P27695 whole entry C65S): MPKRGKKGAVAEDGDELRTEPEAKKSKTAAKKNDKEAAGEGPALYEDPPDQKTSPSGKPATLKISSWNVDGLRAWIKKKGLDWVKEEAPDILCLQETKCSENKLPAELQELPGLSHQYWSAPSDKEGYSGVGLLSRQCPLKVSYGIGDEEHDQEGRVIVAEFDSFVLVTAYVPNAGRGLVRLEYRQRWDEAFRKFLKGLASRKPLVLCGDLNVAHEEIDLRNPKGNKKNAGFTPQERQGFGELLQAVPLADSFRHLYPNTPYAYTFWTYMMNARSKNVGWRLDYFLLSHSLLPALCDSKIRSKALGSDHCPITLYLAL
Sequence of recombinant APE1 C65S+C99S (P27695 whole entry C65S/C99S): as the sequence (P27695 whole entry C65S) above, with C99S counted along it
Sequence of recombinant APE1 C99S (P27695 whole entry C99S): as the sequence (P27695 whole entry C65S) above, with S65C, C99S counted along it

B1: recombinant GST-Mia40 wild type (natural protein, human, UniProt Q8N4Q1 1-142, looked up)
chain: MSYCRQEGKDRIIFVTKEDHETPSSAELVADDPNDPYEEHGLILPNGNINWNCPCLGGMASGPCGEQFKSAFSCFHYSTEEIKGSDCVDQFRAMQECMQKYPDLYPQEDEDEEEEREKKPAEQAEETAPIEATATKEEEGSS
binds: [1] | recombinant APE1 C65S | recombinant APE1 C99S
